Data on three molecules can be found in patent US20060258586A1, “Compositions and uses of secreted polypeptide, Zsig98” (priority 2005, published 2006).

Data set [1] concerns cisplatin- or syrup of ipecac-induced emesis. Particulars: 3 mg/kg i.p.; cited from earlier work.
Data set [2] concerns the molecule itself. Description: SDS PAGE of refolded synthetic peptide; self-association.
The next data set relates to strips of ileum. In words: guinea pig ileum organ bath contractility. The settings on record: isolated ileum strips. As for the experimental part:
In another model, male Hartley Guinea pigs at six weeks of age weighing approximately 0.5 kg are euthanized by carbon monoxide. Intestinal tissue is harvested as follows: 2-3 cm longitudinal sections of ileum 10 cm rostral of the cecum, and 2-3 cm longitudinal sections of duodenum, jejunum, and proximal and distal colon.
Tissue is washed in Krebs Ringer's Bicarbonate buffer containing 118.2 mM NaCl, 4.6 mM KCl, 1.2 mm MgS04, 24.8 mM NaHC03, 1.2 mM KH2P04, 2.5 mM CaCl2 and 10 mM glucose. […] Isometric contractions are measured with a force displacement transducer and recorded on a chart recorder using Po-ne-mah Physiology Platform Software. […]
Varying doses of Zsig98 from 1-400 ng/ml are tested for activity on strips of ileum. Muscle contractions are detected immediately after adding Zsig98 protein and are recorded at concentrations as low as 1 ng/ml or 100 picomolar. The EC 50 of this response is measured. […]
In another model, male Hartley Guinea pigs at six weeks of age weighing approximately 0.5 kg are euthanized by carbon monoxide. […] Isometric contractions are measured with a force displacement transducer and recorded on a chart recorder using Po-ne-mah Physiology Platform Software. […] Muscle contractions are detected immediately after adding Zsig98 protein and are recorded at concentrations as low as 1 ng/ml or 100 picomolar. The EC 50 of this response is measured. […]

Turning to `COc1ccccc1CN[C@H]1CCCN[C@H]1c1ccccc1` (relative stereo) [(.+−.) cis-3-(2-methoxybenzylamino)-2-phenyl piperidine], in data set [1], the anti-emetic activity result is “exhibited anti-emetic activity”.

B1: Mature Zsig98, synthetic, made by native ligation and refolded (PEP05014 and PEP05015) (peptide)
chain: EPAGSAVPAQSRPCVDCHAFEFMQRALQDLRKTACSLDARTETLLLQAERRALCACWPAGH
notes: also called zsig98 peptide; synthetic zsig98
Consider B1, for which, in data set [2], the binding result is “binds”.

B2: Zsig98: secreted polypeptide; mature form amino acids 35 to 95 of SEQ ID NO:2 (SEQ ID NO:18) (protein, listed as Homo sapiens)
chain: B1 chain
modifications: not fully specified
With B2, the “activity in the presence of 5HT” value with strips of ileum is “a secondary contraction is observed”.
